{"source": "paper PMC7887631", "origin": "cited, not measured here", "molecular_target": "Prion protein (PrPC) (UniProt P04156)", "data": [{"substance": "STI1 (from UniProt P31948)", "values": [{"measurement": "Kd", "result": 0.1, "unit": "µM"}]}]}
